The test addresses Rabbit skeletal muscle actin (actin filaments, F-actin) (rabbit, UniProt P68135 1-377). Kind of test: co-sedimentation.

Experimental findings from paper doi:10.1101/2022.09.23.509211 (bioRxiv, 2022) are described below.

Some results are limits rather than exact numbers.

B1: Mouse metallothionein-3 (MT-3), recombinant, cleaved WT MT-3 (natural protein)
chain: not shown
For B1, the Kd was more than 20 µM.

The Kd is the free concentration of one partner at which half of the binding sites on the other are occupied at equilibrium, for simple one-to-one binding.
